Experimental findings from US10995119B2, “Peptide exhibiting hydrolytic activity and use thereof” (Okinawa Institute of Science and Technology School …, priority 2016, dated 2021) are described below.

One test deals with Aβ11-29 (Homo sapiens, UniProt P05067). Briefly: Hydrolysis activity against Aβ11-29. The following applies: for degradation of Aβ-F (Aβ11-29): Example 15, peptide 0.2 mmol/l.
The nature of test [1]: Autodigestion of the catalytic peptide (HPLC, MS). It is filed as biochemical. The protocol: First, to a buffer solution (Tris-HCl, pH 6.5, final concentration: 100 mmol/l), JAL (final concentration: 0.2 mmol/l) and the fragment peptide of hMMP7 (final concentration 0.05 mmol/l) were added. […] Thereafter, the reaction solution was subjected to HPLC, and the peaks of JAL and the fragment peptide of hMMP7 were examined. HPLC was performed under the following conditions.
Next, the mechanism of autodigestion was examined using various mutants of JAL as hydrolytic peptides. To a reaction solution containing each of the mutants of JAL, a protease inhibitor (trade name: Roche cOmplete, Roche) was added to cause a reaction. One tablet of the protease inhibitor was dissolved in 1 ml of Milli-Q water, and then, 50 μl of the resultant mixture was added to the reaction solution. […] As a result, the autodigestion of all the peptides subjected to the measurement was inhibited (FIG. 16).
Autodigestion in Box B was examined.
JAL-TA9 was reacted in the same manner except that a substrate was not added to examine the autodigestion of JAL-TA9.
The influence of an inhibitor on autodigestion of JAL-TA9 was examined. […] As the protease inhibitor, the serine protease inhibitor AEBSF, which inhibited the autodigestion of JAL 12-22 C19M in the item (6) in Example 4, was used.

Another test has as its target PrP 175-189 (Homo sapiens, UniProt P04156).
The next test deals with Aβ1-20 (Homo sapiens, UniProt P05067). Nature of the test: Hydrolysis activity against Aβ1-20.
Test [2] addresses soluble Aβ1-42 (Aβ42 authentic sample) (Homo sapiens, UniProt P05067). Nature of the test: Hydrolysis activity against soluble Aβ1-42 (authentic sample). Particulars: Example 9, chimera 0.2 mmol/l, PBS, HSA.
Description: (§1) As substrates, Aβ42 in the form of soluble powder (authentic sample, Peptide Institute Inc.) and fragment peptides thereof, namely, Aβ1-20, Aβ11-29, and soluble Aβ28-42, were used. […] In the case of MS analysis, the MS analysis was performed after applying 20 μl of the reaction solution to HPLC and collecting an aliquot of the peak.
Aβ42 was used as a substrate. […] In the case of MS analysis, the MS analysis was performed after applying 20 μl of the reaction solution after the reaction for 7 days to HPLC and collecting an aliquot of the peak.
[3] abbreviates: Example 14, peptide 0.2 mmol/l, PBS, HSA.
[4] abbreviates: Example 5 (1), JAL 14-18 and mutants.
Setting [5] is: Example 15, substrate not added.
[6] abbreviates: reaction solution VI, reaction for 1 day.
Setting [7] is: reaction solution VI, reaction for 5 days.

Where two headings read alike, the source gives them in different places.

Description for Aβ1-20: (§2) Further, any change in activity caused by addition of human serum albumin (HSA, Wako Pure Chemical Industries, Ltd., final concentration 0.025%) also was measured.
as §1
(§3) The present experiment examined activity against Aβ-Fs in Example 7.
(§4) As substrates, the same Aβ1-20 and Aβ11-29 as used in Example 7 were used.
Description for Aβ11-29: as §2, §1
As a substrate, Aβ11-29, which is a fragment peptide of Aβ42, was used. […] In the case of MS analysis, the MS analysis was performed after applying 20 μl of the reaction solution after the reaction for 6 days to HPLC and collecting an aliquot of the peak.
as §3
The reaction solution V shown in FIG. 52 was incubated at 37° C. for a predetermined time, and autodigestion of ANA-YA4 (YRMI) and cleavage of Aβ11-29 were examined.
A reaction solution VI shown in FIG. 52 was incubated at 37° C. for a predetermined time, and cleavage of Aβ1-20 and Aβ11-29 by ANA-SA5 was examined.
as §4
The present example examined autodigestion and activity against Aβ-F of JAL 12-17 (YKGSGF) and JAL 12-16 (YKGSG). […] As a substrate, the same Aβ11-29 as used in Example 7 was used. The autodigestion was examined by causing the reaction in the same manner, except that the substrate was not added.

Take AISSSMHSLYGLGLGS [Tob1 221-236]: in the test with Aβ11-29 (Example 6 (3)), the “hydrolysis activity against Aβ11-29” value is listed as “exhibited activity”. In addition, the autodigestion entry in test [1] (Example 6, HSA added, 5 days) is recorded as “fragments suggesting autodigestion of Tob1 221-236 were observed”.

YPEKPSKGQAYRCIRV [BTG3 7-22]: the “hydrolysis activity against PrP 175-189” value on PrP 175-189 and on PrP 175-189 (Cu2+ further added to HSA) was “exhibited activity” throughout.

Regarding WIDPFEVSYQIGE [Box B Tob1 8-20], the “cleavage sites in Aβ-Fs (MS)” value in the test with Aβ11-29 (Example 14) and with Aβ1-20 (Example 14) was “cleaved at a plurality of sites” in each case. In addition, the “degradation of Aβ-Fs (HPLC)” value with Aβ11-29 (setting [3]) and in the test with Aβ1-20 (setting [3]) was “degraded Aβ-Fs” throughout. The autodigestion result in test [1] (Example 6, HSA added, 5 days) is listed as “fragments suggesting the occurrence of autodigestion were observed”.

Regarding GSGYR, the “hydrolysis activity against Aβ1-20” value in the test with Aβ1-20 (setting [4]) is given as “strong activity”.

As for AKGSGFRMI, in the test with Aβ11-29 (Example 3 (6)), the “hydrolysis activity against Aβ11-29” value is recorded as “exhibited activity”.

Take SKGQA [ANA-SA5]: in the test with Aβ11-29 (reaction for 5 days), the “types of fragments of Aβ11-29 detected” value amounted to 13. Besides, the “types of fragments of Aβ1-20 detected” value with Aβ1-20 (reaction for 5 days) is 12.

Turning to APEKPYKGSGFRMIHA, in the test with Aβ11-29 (Example 3 (6)), the “hydrolysis activity against Aβ11-29” value was “exhibited activity”.

In the case of YKGSGFRMI [JAL 12-20 C19M], the “hydrolysis activity against Aβ11-29” value with Aβ11-29 (Example 3 (6)) is reported as “exhibited activity”; in the test with Aβ11-29 (Example 4 (5)), “strong activity”. For the same substance, in test [1] (AEBSF, with Aβ11-29, 1 day), the “autodigestion in presence of protease inhibitor” value is reported as “inhibited by AEBSF”.

Consider EKPYKGSGFRMI, for which the “hydrolysis activity against Aβ11-29” value with Aβ11-29 (Example 3 (6)) is on record as “exhibited activity”.

On to YPEKPLKGSGFRCVHI [Tob2 7-22], for which the “hydrolysis activity against PrP 175-189” value on PrP 175-189 and at PrP 175-189 (Cu2+ further added to HSA) was “exhibited activity” in each case.

With HSDCPSKGQAFRCIRI [BTG4 7-22], the “hydrolysis activity against PrP 175-189” value on PrP 175-189 is listed as “exhibited activity”.

With GSGFR, the “hydrolysis activity against Aβ1-20” value with Aβ1-20 (Example 3 (2), (6)) is given as “exhibited activity”; with Aβ1-20 (setting [4]), “strong activity”.

Take GSGQR: the “hydrolysis activity against Aβ11-29” value in the test with Aβ11-29 (setting [4]) is reported as “strong activity”.

Turning to YKGSG [JAL 12-16], the “degradation of Aβ-F (Aβ11-29)” value with Aβ11-29 (PBS, HSA) is “degraded Aβ-F”. The autodigestion entry in test [1] (setting [5]) is “digested themselves”.

Take FPEKPCKGSGYRCIRI [BTG1 7-22]: on PrP 175-189, the “hydrolysis activity against PrP 175-189” value is “exhibited activity”.

In the case of YKGSGF [JAL 12-17], the “degradation of Aβ-F (Aβ11-29)” value with Aβ11-29 (PBS, HSA) is given as “degraded Aβ-F”. Moreover, in test [1] (setting [5]), the autodigestion result is on record as “digested themselves”.

On to WVDPYEVSYRIGE [Box B BTG1 8-20], for which the “hydrolysis activity against Aβ11-29” value in the test with Aβ11-29 (Example 6 (3)) was “exhibited activity”. For the same substance, the autodigestion result in test [1] (Example 6, HSA added, 5 days) is listed as “fragments suggesting the occurrence of autodigestion were observed”.

GSGVR: in the test with Aβ1-20 (setting [4]), the “hydrolysis activity against Aβ1-20” value is recorded as “strong activity”.

With “FVIFLDVKHFSPEDLTVK-AA-YKGSGFRMI (FVIFLDVKHFSPEDLTVKAAYKGSGFRMI) [chimera peptide]”, the “degradation of Aβ11-29 (HPLC)” value with Aβ11-29 (Example 9, chimera 0.2 mmol/l, PBS, HSA) is “degraded Aβ11-29”. Further, the “degradation of Aβ42 (HPLC)” value in test [2] was “degraded Aβ4211-29 from Day 1”.

As for DSGFR, the “hydrolysis activity against Aβ1-20” value in the test with Aβ1-20 (setting [4]) is reported as “strong activity”.

On to YRMI [ANA-SA4], for which, in the test with Aβ11-29 (reaction solution V, 37° C.), the “cleavage of Aβ11-29” value is “degraded Aβ11-29”. The same substance had an Aβ11-29 peak remaining with Aβ11-29 (setting [6]) of 72%. Also, the Aβ11-29 peak entry with Aβ11-29 (setting [7]) is recorded as “almost disappeared”. Further, the autodigestion result in test [1] (reaction solution V, 37° C.) was “digested itself”. In addition, the “cleavage of Aβ1-20” value with Aβ1-20 (reaction solution V, 37° C.) is recorded as “degraded Aβ1-20”. In addition, the Aβ1-20 peak remaining with Aβ1-20 (setting [6]) is given as 49.6%. Further, the Aβ1-20 peak entry with Aβ1-20 (setting [7]) was “almost disappeared”.

Take GSGHR: the “hydrolysis activity against Aβ11-29” value in the test with Aβ11-29 (setting [4]) is listed as “strong activity”.

On to YKGSGFRMIHA, for which the “hydrolysis activity against Aβ11-29” value with Aβ11-29 (Example 3 (6)) is “exhibited activity”.

As for YKGAGFR, the “hydrolysis activity against Aβ1-20” value with Aβ1-20 (Example 3 (2), (6)) is on record as “exhibited activity”.

As to YKGSGFR [JAL (Tob1) 12-18], the “hydrolysis activity against Aβ1-20” value with Aβ1-20 (Example 3 (2), (6)) is given as “exhibited activity”.
